For series [1], the target named is EphA2-LBD (residues 27-200) (Homo sapiens, UniProt P29317). The series is described as follows: 1D 1H-aliph NMR binding assay, rank ordering. Particulars: 10 μM EphA2-LBD, 100 μM compound; arbitrary scale 1 to 5.
Series [2] can be described thus: Plasma stability by LC-MS. The following applies: rat plasma, 37 °C; 123B7 versus YSA, 123B4 versus YSA-9mer.
The conditions of series [3]: mice; ref Singla et al., 2002; Zhang et al., 2013; cited from earlier work.
For series [4] the following is noted: cited from earlier work.
Series [5] has as its target EphA2 ligand binding domain (residues 27-200) (UniProt P29317 27-200). The series is described as follows: NMR titration.

*: point of attachment. P‑1 benzyl acid (p-CN) = benzyl acid lacking the N-terminal amino group (p-cyano substituted), replacing Tyr at P-1, N#Cc1ccc(CCC(=O)*)cc1; P‑1 benzyl acid (p-SO2NH2) = p-sulfonamide (SO2NH2) benzyl acid lacking the N-terminal amino group, replacing Tyr P-1; P‑1 benzyl acid (m-CH3) = m-methyl benzyl acid lacking the N-terminal amino group, replacing Tyr P-1; P‑1 benzyl acid (m-Cl) = m-chloro benzyl acid lacking the N-terminal amino group, replacing Tyr P-1; P‑1 benzyl acid (m-F) = m-fluoro benzyl acid lacking the N-terminal amino group, replacing Tyr P-1; P‑1 benzyl acid (p-NH2) = benzyl acid at P-1 lacking the N-terminal amino group, replacing Tyr P-1; Propanoyl(3-(4-F-phenyl)) = O=C(CCc1ccc(F)cc1)*

EphA2 ligand binding domain (residues 27-200), sequence (P29317 27-200): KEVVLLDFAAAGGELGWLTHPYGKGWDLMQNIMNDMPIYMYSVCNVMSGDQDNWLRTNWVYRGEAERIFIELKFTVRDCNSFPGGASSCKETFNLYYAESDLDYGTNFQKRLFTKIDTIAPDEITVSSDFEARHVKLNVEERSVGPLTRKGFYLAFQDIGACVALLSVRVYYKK
EphA2-LBD (residues 27-200), sequence (P29317 27-200): as above

Turning to “120H5 ({P‑1 benzyl acid (p-NH2)}-SAYPDSVP-NH2)”, in series [1], the “Rank ordering by NMR” value is reported as 1.

As to `CSCC[C@H](NC(=O)[C@H](CCSC)NC(=O)[C@@H]1CCCN1C(=O)[C@@H](NC(=O)[C@H](CO)NC(=O)[C@H](CC(=O)O)NC(=O)[C@@H]1CCCN1C(=O)[C@H](Cc1ccc(O)cc1)NC(=O)[C@H](C)NC(=O)[C@H](CO)NC(=O)COc1ccc(F)c(Cl)c1)C(C)C)C(=O)N[C@@H](CO)C(N)=O` [123B7], in series [2], the “plasma stability versus corresponding non-optimized peptide” value is given as “significantly improved peptide stability”.

As for `CC(=O)O[C@H]1C(=O)[C@@]2(C)[C@H]([C@H](OC(=O)c3ccccc3)[C@]3(O)C[C@H](OC(=O)[C@H](O)[C@@H](NC(=O)c4ccccc4)c4ccccc4)C(C)=C1C3(C)C)[C@]1(OC(C)=O)CO[C@@H]1C[C@@H]2O` [PTX, paclitaxel], the “single dose MTD” value in series [3] was less than 30 mg/kg.

As to ySAYPDSVP-Nle-Hsr-S [dYNH], the half-life in plasma in series [4] was more than 1 h.

On to {P‑1 benzyl acid (p-SO2NH2)}-SAYPDSVP-NH2 [120H8], for which the “Rank ordering by NMR” value in series [5] is 3 rank, arbitrary scale 1-5.

Take {P‑1 benzyl acid (m-Cl)}-SAYPDSVP-NH2 [120G8]: the “Rank ordering by NMR” value in series [5] was 4 rank, arbitrary scale 1-5.

Regarding {P‑1 benzyl acid (p-NH2)}-SAYPDSVP-NH2 [120H5], in series [5], the “Rank ordering by NMR” value is 1 rank, arbitrary scale 1-5.

Consider {P‑1 benzyl acid (m-F)}-SAYPDSVP-NH2 [120G7], for which, in series [5], the “Rank ordering by NMR” value was 2 rank, arbitrary scale 1-5.

With {P‑1 benzyl acid (p-CN)}-SAYPDSVP-NH2 [120A5], the “Rank ordering by NMR” value in series [5] was 3 rank, arbitrary scale 1-5.

On to {Propanoyl(3-(4-F-phenyl))}-SAYPDSVP-NH2 [120F11], for which the “Rank ordering by NMR” value in series [5] was 2 rank, arbitrary scale 1-5.

As to {P‑1 benzyl acid (m-CH3)}-SAYPDSVP-NH2 [123A12], the “Rank ordering by NMR” value in series [5] is 4 rank, arbitrary scale 1-5.

The record behind these values is PMC4515144 (Chemistry & biology, 2015).
